Data published in PMC5737657.

Assays:
[1] = biological target: T1, VapB26 antitoxin (ITC/EMSA) (Mycobacterium tuberculosis, UniProt O53778 1-71); assay: ITC
[2] = biological target: T1, VapB26 antitoxin (ITC/EMSA); assay: ITC; remark: listed apart in the source
[3] = biological target: His6-VapB26 antitoxin (NMR) (Mycobacterium tuberculosis, UniProt O53778 1-71); assay: NMR
[4] = biological target: T1, VapB26 antitoxin (ITC/EMSA); assay: EMSA

T1 sequence (O53778 whole entry): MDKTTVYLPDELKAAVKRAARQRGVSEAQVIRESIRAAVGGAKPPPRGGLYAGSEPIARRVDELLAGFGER
His6-VapB26 antitoxin (NMR), sequence (O53778 whole entry): as above

B1: vapBC26 promoter DNA (19 bp) (dsDNA)
DNA 1: TTCGCGGCTACGCCGACAA
DNA 2: TTGTCGGCGTAGCCGCGAA
- Kd [1]: 4.69 ± 0.81 µM

B2: control DNA 'X' (dsDNA)
DNA 1: GATTTTTTTTGATTTTTTT
DNA 2: AAAAAAATCAAAAAAAATC
- binding result [2]: no binding
- binding result [3]: no binding

B3: palindromic DNA 'a' (dsDNA)
DNA 1: TATTTTAATAACTTAAAAGT
DNA 2: ACTTTTAAGTTATTAAAATA
- binding result [4]: no binding

B4: palindromic DNA 'b' (dsDNA)
DNA 1: TAATAGAATAATAAGTATCACTCCTTTA
DNA 2: TAAAGGAGTGATACTTATTATTCTATTA
- binding result [4]: no binding
